Results taken from the DeepSol protein solubility set.

Assay: soluble on expression in E. coli; label from the status in PepcDB or PDB records
With “MAGDPMKAREVEFEGHLIDSMIFTKALDIILDLDGEFEILEFRVGKKKDDPSYARMIVFGRDDAHLEQILKELHKIGARIPDIEEVELAEAPADKVLPDGFYVTTNHPTFVRYGGEWLPVEDISMDRVIVIRDGRAYCIPIDEVVRGDRVVVGEKGVRVVPPERPRKSTVFEFMGGRVSSERPTERMIEAIAREIYELKLKGGKIAVVAGPAVDHTSARNALAALIRDGYVDLLLSGNALAVHDIEISIFGTSLGMDICKGRPVPGGNRHHLYTISKVIAAGGIKKAIEKGIIKDGIMYECVKNNVPFILAGSIRDDGPLPEVITDVMVAKKKMKEALRGINMVIMLATMLHSIAVGNLLPSYVKTICVDMNPSTVTKLMDRGTHQAIGVVTDVGLFLPLLYLKIKEIEAKELEHHHHHH” the “soluble on expression in E. coli” value was “soluble”. For “MAGDPMKKTILLTMTTLTLFSMSPNSAQAYTNDSKTLEEAKKAHPNAQFKVNKDTGAYTYTYDKNNTPNNNHQNQSRTNDNHQHANQRDLNNNQYHSSLSGQYTHINDAIDSHTPPQTSPSNPLTPAIPNVEDNDDELNNAFSKDNKGLITGIDLDELYDELQIAEFNDKAKTADGKPLALGNGKIIDQPLITSKNNLYTAGQCTWYVFDKRAKDGHTISTFWGDAKNWAGQASSNGFKVDRHPTRGSILQTVNGPFGHVAYVEKVNIDGSILISEMNWIGEYIVSSRTISASEVSSYNYIHLEHHHHHH”, the “soluble on expression in E. coli” value was “not soluble”. With “MAGDPMKQFAQTYYLLQFIICLICLSISCGEGGNDNYSETNDERNKEPEITVSPITNLEAKSTQIANQLLITWQNPNTPNLLGVELSYLQKNGGTHNGKQIIQGAAGKTGNYTLQLPQYGTYEISAIAIDNYGHRSSAVTVIATPAETTVPFSWATLADSCTYVLIEQFMNKSKGTFWSTPKDMSDESTYIYWQQAHAMDVVIYSYKRIKDTNKQLAATYRTYFERWYANHANNYHRNPSDETGFLNDFTDDMCWICLTLIHLSEATGDEKFAQTAKIVYDKYIITRAWTDDKGTGLPWNTTQNDRNACTNSPGCLVAAKLYQRYEDGNYLSDAKKLYEYVVNNSYNADGRVEEPPLTYTQGTFGEACRQLYHITQESKYMDKAKQVINYAATSDRCLRNGILRDEGSSMDQSIFKSVYIPYAVNLALDEASSSIGKHLITFLKNNAETLRMNLNHAAYPAMYCNYWWGEMWKSSEPASMGAQVSGASLMEGIARLEAAALEHHHHHH” the “soluble on expression in E. coli” value was “not soluble”. With “MAGDPMNEQSQAKSPDTLRAMVAGTLANFQHPTLKHNLTTLKALHHVAWMDDTLHVELVMPFVWNSAFEVLKEQCSADLLRITGAKAIDWKLSYNIATLKRVKNQPGINGVKNIIAVSSGKGGVGKSSTAVNLALALAAEGAKVGVLDADIYGPSIPTMLGAEDQRPTSPDGTHMAPIMSHGLATNSIGYLVTDDNAMVWRGPMASKALMQMLQETLWPDLDYLVLDMPPGTGDIQLTLAQNIPVTGAVVVTTPQDIALIDAKKGIVMFEKVEVPVLGIVENMSMHICSNCGHHEPIFGTGGAQKLAEKYHTQLLGQMPLHISLREDLDRGTPTVVSRPESEFTAIYRELADRVAAQLYWQGEVIPGEIAFRAVLEHHHHHH” the “soluble on expression in E. coli” value was “soluble”. In the case of “MAGDQELELRFDVPLYTLAEASRYLVVPRATLATWADGYERRPANAPAVQGQPIITALPHPTGSHARLPFVGIAEAYVLNAFRRAGVPMQRIRPSLDWLIKNVGPHALASQDLCTDGAEVLWRFAERSGEGSPDDLVVRGLIVPRSGQYVFKEIVEHYLQQISFADDNLASMIRLPQYGDANVVLDPRRGYGQPVFDGSGVRVADVLGPLRAGATFQAVADDYGVTPDQLRDALDAIAA”, the “soluble on expression in E. coli” value was “soluble”. With “MAGEKFQKKGKEKWKEKVWYTVEAPPYLGSKEVSVALGEDSNSMVNRVVEVPISELTGNFKKSNEKALFRITNCEGTKCKTIFIGHYIGDDYIRRLVRRRKERIDIIEDVKTSDNSIITVKIVVVTDGKVTNTKKFQIRKVLTDFILNKGLSLPYSEFVRYLIGDDIYNDMISATKDIYPLKKIEVRKSELVSLSGISEIHAGSQLEHHHHHH” the “soluble on expression in E. coli” value was “soluble”. With “MAGGEDRGDGEPVSVVTVRVQYLEDTDPFASANFPEPRRAPTCSLDGALPLGAQIPAVHRLLGAPLKLEDSALQVSPSGYYLDTELSLEEQREMLEGFYEEISKGRKPTLILRTQLSVRVNAILEKLYSSSGPELRRSLFSLKQIFQEDKDLVPEFVHSEGLSCLIRVGAAADHNYQSYILRALGQLMLFVDGMLGVVAHSDTIQWLYTLCASLSRLVVKTALKLLLVFVEYSENNAPLFIRAVNSVASTTGAPPWANLVSILEEKNGADPELLVYTVTLINKTLAALPDQDSFYDVTDALEQQGMEALVQRHLGTAGTDVDLRTQLVLYENALKLEDG” the “soluble on expression in E. coli” value was “soluble”. With “MAGRKSSRTAERVPTTQKPERKSAILSPHDELRERLLETAIDMKENIPQRNTRNSSVGSQKSDCSETRKRRSTKEGPAAKRHSGEKHRNGSREDSLEYISDDREVGSSSSQSSRTRGQPLPAMPEEEEVFDKSSSSDNLAESEESHEMVRLEERQDIEEEIEDDFDDEEEDVVNDKEEYEEIESEDEDDYPVQNEGFAVTKRLMNDEHMVTAPTFLSTAKCDGIGSPTKVWSLMVKRDEIPRATRFLLGNHPDMDDEKRRILIDWMMEVCESEKLHRETFHLAVDYVDRYLESSNVECSTDNFQLVGTAALFIAAKYEEIYPPKCIDFAHLTDSAFTCDNIRTMEVLIVKYIGWSLGPITSIQWLSTYLQLLGTGKKNKSDHYEEQNMYVPELLRSEYLEMCKILDFLLFEIDSFTFSYRTIAAAVLFVNYEPTCAVEKATGFMQAQLEKVIEYVEPVCRAFAKQRQLLDDVIPKHESIKSDDSHNIQVYVKRSSMEPIVKSERERIQHLKARRLHPQRLF” the “soluble on expression in E. coli” value was “not soluble”. In the case of “MAHERAGQLAQPQDLIDIAEVVTAYYTRTPDADNPDQQVAFGTSGHRGSSLDTAFNENHILAITQAIVEYRAQHHIGGPIFIGRDTHALSEPAMISALEVLLAHGIEVLVDDRGRYTPTPAVSHAILAYNAQRSDSSQYSDGIVITPSHNPPRDGGFKYNPPNGGPADTDATDWIADRANTLLREGLVSVKRTSVTGVLDPRAHRHNYMENYIADLPNVVDIDAIRNSGLAIGADPMGGASVDYWGAIAEKHSLNLTVVNPLVDATWRFMTLDTDGKIRMDCSSPDSMASLVHNRTKYDIATGNDADADRHGIVTPDAGLMNPNHYLAVAIDYLFSHRPQWNSSTAVGKTLVSSSMIDRVVADLGRKLVEVPVGFKWFVPGLVDGSVGFGGEESAGASFLRHNGTVWSTDKDGIILDLLASEITAVTGKTPSQRYEELAARFGSPAYARTDAPATREQKAVLKKLSPEQVTATELAGEAITAKLTTAPGNGAAIGGLKVTTENAWFAARPSGTEDKYKIYAESFLGADHLAMVQREAQNLVSDVL”, the “soluble on expression in E. coli” value was “not soluble”. For “MAHHHHHHMAKERNLDLKALQRSKRTVAHAYDAGVRSVPPALPLDIGGALAQVLTTRVTTCFGLHLIVTAQNEDAEQQSAPSLLMDVAVRAHLERLPLPVLHRLISDLCEVRAAWKRDLLAPSAAAAVQEQALLGRESINALLYHVCLWQRRYPLELLSAVLSFYDEHKHLFSPATSERCSASVQLESLLEEVQCLQYPDLSDVPGLIRCDVFMTYPHMPLGEQRQLMHTIAAAVVHRKAAGGLQRQSSCMGTEEKYVTDNLLRHSRTPPDPRLLLRSFVVDGAAAIPERFCTDMPTQTYHEMRAAFERHKHDGVRRLAAQDYGQAVTELTPPPPPPPPQPAASSVPSS”, the “soluble on expression in E. coli” value was “not soluble”. In the case of “MAHHHHHHMASVDTQWAIKSILQLGHHHLRHGAETTSSSSSCLVRPTSPPFRSASKAVQVTAMPRLMRASCDPSYVILLAKRPSGIAGVSLRPGNRVPWTGLPAAASSLVSAPCSKKTRLLASYLQRRGFATIRPVATDTHSSPSQFRPVQRSMPLLLHTSHLIGWKLNDASPAFPVYAHTLAELQQLRSSDVAALKPQHCLIANEYCEWDNWREVLGEPGWDLFSADEDAVERLLQDGLAISALEEEAGLYPVEVL”, the “soluble on expression in E. coli” value was “not soluble”. In the case of “MAHHHHHHMASVSSGVPLTAPSAQKLLQSVKYILLDVDGVVWSGPRVLPNIPQTLQYLRSLGKEIRFLTNNASVSRSSLAQLFRQRGIEGVKESEVYNSGYAAALRLRRICGAAEGNQERQEGNEPTSDKRLVRGNVFVIGEEGLHEELQRVLAPGYITYGMELHDAEKVGGYNSANAATAWKERILPAPLRQLKPPDGITDYGRGISLTDLSPVAVVVGLDLHFNMLKLAYASLCLHRGAGSNTDSEGDRIGGDRDRTPDKGLQKPVCFIATNEDPQIPIGEEGLLLPGAGGMVSALRTVSGRNPDAVCGKPHVDMARIMFEAEGITDARQCLMVGDRLTTDIAFGNAAGCRTLFVLSGAESMADIARAKSTGDSQLLPEFVAPSLASLMPDARDD”, the “soluble on expression in E. coli” value was “soluble”.
